These results are taken from patent US20240409645A1 (DUALYX, published 2024).

T1: human IL-2Rβ (human, UniProt P14784 27-240, limits assumed)
T1 construct: recombinant protein, coated or immobilised; also called hu IL-2R; IL-2R beta
T1 sequence: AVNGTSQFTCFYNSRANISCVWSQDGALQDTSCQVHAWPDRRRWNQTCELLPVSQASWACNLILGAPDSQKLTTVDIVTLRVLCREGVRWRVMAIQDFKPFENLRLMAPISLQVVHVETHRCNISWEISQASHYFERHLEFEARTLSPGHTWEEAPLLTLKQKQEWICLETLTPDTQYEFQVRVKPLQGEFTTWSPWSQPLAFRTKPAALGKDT

B1: FJ1427_P035MP02B09 (VHH)
VHH: EVQLVESGGGLVQAGGSLRLSCAASGRTFSTTEMGWFRQAPGKEREFVAAITWTGRGTMYAESVEGRFTISRENAKNMVYLQMNSLKPEDTAIYYCAAARRGRAAVRSEGGYDFWGQGTQVTVSS
notes: soluble VHH in periplasmic extract; also called clone nr
B2: FJ1427_P035MP02D07 (VHH)
VHH: B1 VHH with T28S, F29L, T54S, T69A, I70V, M78T
notes: as for B1
B3: FJ1427_P035MP02G10 (VHH)
VHH: B1 VHH with E1Q
notes: as for B1
B4: FJ1427_P035MP02A11 (VHH)
VHH: B1 VHH with V121A
notes: as for B1
B5: FJ1427_P035MP02F08 (VHH)
VHH: QVQLVESGGGLVQAGGSLRLSCAASGSIFSLNTMGWFRQAPGKEREFVAAISRSGGSATYGDSVKGRFTISTNNAKTTVYLQMNSLKPDDTAVYSCAASAAVGWTTRWSTIDFDSWGQGTQVTVSS
notes: as for B1
B6: FJ1427 P035MP02D09 (VHH)
VHH: QVQLVESGGGLVQAGGSLRLACALSGDVFVRYTMAWFRQAPGKEREFVASVTDSGRTTDYVASVQGRFTVSRDNNKNTVYLQMNSLKPEDTAVYYCAANTDYFQIRSLDRNTWGQGTQVTVSS
notes: as for B1
B7: FJ1427 P035MP02C11 (VHH)
VHH: B6 VHH with A21S, L24V, D59E, A62D, Q65K, N75A, D109R, R110A
notes: as for B1
B8: FJ1427 P035MP02H10 (VHH)
VHH: B6 VHH with Q1E, A21S, L24A, A62D, Q65K, N75A, S85N, R106K
notes: as for B1
B9: FJ1427_P035MP06F03 (VHH)
VHH: B6 VHH with A21S, L24V, A62H, Q65K, N75A, S85N, R106K, R110A
notes: soluble VHH in periplasmic extract; also called 23-MP06F03; clone nr; 502
B10: FJ1427_P035MP02G09 (VHH)
VHH: QVQLVESGGGLVQAGGSLRLSCTVSGDVFVRYTMAWFRQAPGKEREFVALVTDSGRTTEYVDSVKGRFTVSRDNAKNTVYLQMNNLKPEDTAVYYCAANTDYFRIRSLDANTWGQGTQVTVSS
notes: as for B1
B11: FJ1427_P035MP02C10 (VHH)
VHH: B6 VHH
notes: as for B1
B12: FJ1427_P035MP02A08 (VHH)
VHH: B10 VHH with Q1E, L50T
notes: as for B1
B13: FJ1427_P035MP02F09 (VHH)
VHH: B10 VHH with Q1E, T23A, V24A, L50S, E59D, R104Q, D109E, A110F
notes: as for B1
B14: FJ1427 P035MP02F07 (VHH)
VHH: B10 VHH with T23A, V24A, L50S, E59D, V93R, R104Q
notes: soluble VHH in periplasmic extract; also called clone nr; 150
B15: FJ1427 P035MP02F02 (VHH)
VHH: B6 VHH with Q1E
notes: soluble VHH in periplasmic extract; also called clone nr; 110
B16: FJ1427_P035MP02E08 (VHH)
VHH: B10 VHH with Q1E, T23V, L50V, R104Q, L108V, A110N, T112A
notes: as for B1
B17: FJ1427_P035MP02A09 (VHH)
VHH: B10 VHH with T23A, L50S, V64A, N85S, R104Q, D109R
notes: as for B1
B18: FJ1427_P035MP06A07 (VHH)
VHH: B10 VHH with V5Q, T23A, V24A, L50S, V79A, V93I, R104Q, A110L
notes: soluble VHH in periplasmic extract; also called 26-MP06A07; clone nr
B19: FJ1427 P035MP02G08 (VHH)
VHH: B10 VHH with L50S, D62H, K65R
notes: as for B1
B20: FJ1427_P035MP02E07 (VHH)
VHH: B6 VHH with R19G
notes: as for B1
B21: FJ1427_P035MP02F10 (VHH)
VHH: B10 VHH with Q1E, T23V, L50V, R104Q, L108V, A110N, T112A
notes: as for B1
B22: FJ1427_P035MP02G07 (VHH)
VHH: B10 VHH with T23A, L50S, V79A, R104Q, A110L
notes: as for B1
B23: FJ1427 P035MP02C08 (VHH)
VHH: EVQLVESGGGLVQAGGSLRLSCAASGSTFSRQPMYWFRQAPGKEREFVAAITWSGRGTLYADSVEGRFTISRDNAKNTVYLQMNSLRPDDTAAYYCAAGPYGDAAYRHGRIDSWGQGTQVTVSS
notes: as for B1
B24: FJ1427_P035MP02H08 (VHH)
VHH: EVQLVESGGGLVQAGDSLRISCAASGRIFSNYAMGWFRQAPGKETEFVAGITHLTSTTHYADSVKGRFTISRDNAKNTMHLQMNNLKPEDTALYYCAADRNIKITADWSYWGQGTQVTVAS
notes: soluble VHH in periplasmic extract; also called clone nr; 160
B25: FJ1427 P035MP02D11 (VHH)
VHH: B24 VHH with E1Q, V5Q
notes: soluble VHH in periplasmic extract; also called clone nr; 180
B26: FJ1427 P035MP03A12 (VHH)
VHH: EVQLVESGGGLVQAGGSLRLSCAASGRTFSINAMGWFRQAPGKEREFVAAISRSGGSTVYVDGVKGRFTISRDNAKNTVYLQMNSLEPEDTAVYYCAATMAVGWTTRWRTADFDSWGQGTQVTVSS
notes: soluble VHH in periplasmic extract; also called 21-MP03A12; clone nr
B27: FJ1427_P035MP02C07 (VHH)
VHH: B26 VHH with E1Q, A33T, G56D, G63S, S85T, E87K, A98T, M100V, R109S, A111I
notes: as for B1
B28: FJ1427_P035MP02B08 (VHH)
VHH: EVQLVESGGGLVQAGGSLRLSCAASGRAIENYPVGWFRQAPGKEREFVAAITWISGSTLYADSVKGRFTISRDNAKNTVYLQMSSLKPEDTALYYCAAALKTITRGQNDYSYWGQGTQVTVSS
notes: soluble VHH in periplasmic extract; also called 16-MP02B08; clone nr
B29: FJ1427_P035MP02E10 (VHH)
VHH: B28 VHH with E1Q, S25A, Q39R
notes: as for B1
B30: FJ1427_P035MP02B10 (VHH)
VHH: QVQLVESGGGLVEAGGSLRLSCAASGRAFNNFPMGWFRQAPGKEREFVAAITWISGSTLYADSVKGRFTISRDKSKNTVYLQMSGLKPEDTALYYCAAALKTITRGQHDYTYWGQGTQVTVSS
notes: soluble VHH in periplasmic extract; also called clone nr; 170
B31: FJ1427 P035MP02H09 (VHH)
VHH: B28 VHH with E1Q, V2L, A14P, S25A, Q39R
notes: as for B1
B32: FJ1427 P035MP02B07 (VHH)
VHH: B30 VHH with Q1E
notes: as for B1

Residue numbers refer to the chain shown, from its start.

The first assay has as its target T1, human IL-2Rβ. Briefly: SPR, P.E. off-rate. The protocol: SPR was performed to determine dissociation rates using Biacore 3000 instrument (GE Healthcare). Briefly, human and mouse IL-2R proteins were immobilized on carboxylmethyl dextran sensor chip (CM5) at approximately 2500 RUs using amine coupling in acetate buffer (GE Healthcare). The VHH-containing P.E. were loaded with a flow rate of 30 uL/min and the off-rates were measured over a 120s period.
Take B1: the off-rate (koff) was 0.00022 s⁻¹.

B2: the koff came out at 0.000982 s⁻¹.

Turning to B3, the koff came out at 0.000307 s⁻¹. This koff is about 3.2-fold lower than that of the molecule before.

Molecule B4 had a koff of 0.000293 s⁻¹. This koff and that of the molecule before are within 1.5-fold of each other.

Molecule B5 displayed an off-rate (koff) of 0.00153 s⁻¹.

Molecule B6 showed a koff of 0.000498 s⁻¹. This koff is about 3.1-fold lower than that of the molecule before.

Turning to B7, the koff stood at 0.000433 s⁻¹.

In the case of B8, the koff stood at 0.000757 s⁻¹. This koff lies about 1.7-fold higher than the previous one.

For the molecule B9, the dissociation rate constant (koff) is 0.00105 s⁻¹. This koff and that of the molecule before are within 1.5-fold of each other.

The molecule B10 had an off-rate constant (koff) of 0.0011 s⁻¹. The koff values of the last two molecules are within 1.5-fold of each other.

For B11, the koff worked out at 0.000521 s⁻¹.

B12 returned a koff of 0.00198 s⁻¹.

B13: the dissociation rate constant (koff) turned out to be 0.00107 s⁻¹.

Regarding B14, the koff amounted to 0.00164 s⁻¹.

Turning to B15, the koff was 0.000617 s⁻¹.

As to B16, the koff was found to be 0.000846 s⁻¹.

Molecule B17 showed an off-rate (koff) of 0.000617 s⁻¹.

Turning to B18, the dissociation rate constant (koff) turned out to be 0.000363 s⁻¹.

B19 gave an off-rate (koff) of 0.00178 s⁻¹.

Molecule B20 came in with a koff of 0.000577 s⁻¹. This koff is about 3.1-fold lower than that of the molecule before.

B21 displayed a koff of 0.000788 s⁻¹.

In turn, B22 returned an off-rate (koff) of 0.000259 s⁻¹.

Regarding B23, the koff amounted to 0.00333 s⁻¹.

B24 showed a koff of 0.000731 s⁻¹. Against the preceding molecule, the koff is about 4.6-fold lower.

Molecule B25 yielded a koff of 0.000833 s⁻¹.

With B26, the koff came to 0.00628 s⁻¹.

As to B27, the dissociation rate constant (koff) was found to be 0.00231 s⁻¹.

The molecule B28 yielded a dissociation rate constant (koff) of 0.000141 s⁻¹.

B29: the koff turned out to be 0.000615 s⁻¹. Compared with the last molecule, the koff is about 4.4-fold higher.

B30 yielded a dissociation rate constant (koff) of 0.000284 s⁻¹.

Molecule B31 gave an off-rate (koff) of 0.000141 s⁻¹.

B32: the koff was determined as 0.000336 s⁻¹.

The target in another assay is T1, human IL-2Rβ. The assay is described as follows: P.E. ELISA, coated protein. The protocol:
In a binding ELISA, human or mouse IL-2Rα, IL-2Rβ and IL-2Rγ proteins were coated directly on maxisorp microtiter plates overnight at 4° C. Free binding sites were blocked using 4% Marvel in PBS for 1 hour. Next, 1:5 dilution of P.E. in 1% Marvel/PBS were added to wells and incubated for 1 hour. […] Binding specificity was determined based on O.D. at 450 nm values compared to negative controls.
Consider B1, for which the “P.E. binding ELISA OD” value was found to be 0.811 OD450 nm.

As for B2, the “P.E. binding ELISA OD” value worked out at 0.747 OD450 nm.

B3: the “P.E. binding ELISA OD” value turned out to be 0.974 OD450 nm.

Turning to B4, the “P.E. binding ELISA OD” value turned out to be 0.891 OD450 nm.

As for B5, the “P.E. binding ELISA OD” value worked out at 0.614 OD450 nm.

For B6, the “P.E. binding ELISA OD” value stood at 1.47 OD450 nm.

In the case of B7, the “P.E. binding ELISA OD” value stood at 1.57 OD450 nm.

With B8, the “P.E. binding ELISA OD” value was 0.435 OD450 nm.

For the molecule B9, the “P.E. binding ELISA OD” value is 0.54 OD450 nm.

As to B10, the “P.E. binding ELISA OD” value turned out to be 0.527 OD450 nm.

With B11, the “P.E. binding ELISA OD” value came out at 1.29 OD450 nm.

B12: the “P.E. binding ELISA OD” value was 1.79 OD450 nm.

On to B13, for which the “P.E. binding ELISA OD” value worked out at 1.47 OD450 nm.

For the molecule B14, the “P.E. binding ELISA OD” value turned out to be 0.848 OD450 nm.

Consider B15, for which the “P.E. binding ELISA OD” value was found to be 0.684 OD450 nm.

On to B16, for which the “P.E. binding ELISA OD” value turned out to be 0.45 OD450 nm.

Take B17: the “P.E. binding ELISA OD” value was 1.3 OD450 nm.

Take B18: the “P.E. binding ELISA OD” value stood at 1.03 OD450 nm.

In the case of B19, the “P.E. binding ELISA OD” value came to 0.441 OD450 nm.

Turning to B20, the “P.E. binding ELISA OD” value was 0.541 OD450 nm.

In the case of B21, the “P.E. binding ELISA OD” value amounted to 0.595 OD450 nm.

Consider B22, for which the “P.E. binding ELISA OD” value was 0.636 OD450 nm.

Regarding B23, the “P.E. binding ELISA OD” value came out at 0.254 OD450 nm.

Consider B24, for which the “P.E. binding ELISA OD” value turned out to be 0.885 OD450 nm.

B25: the “P.E. binding ELISA OD” value was determined as 0.463 OD450 nm.

As for B26, the “P.E. binding ELISA OD” value was 0.146 OD450 nm.

In the case of B27, the “P.E. binding ELISA OD” value was determined as 0.731 OD450 nm.

In the case of B28, the “P.E. binding ELISA OD” value is 1.38 OD450 nm.

B29: the “P.E. binding ELISA OD” value turned out to be 1.39 OD450 nm.

Consider B30, for which the “P.E. binding ELISA OD” value turned out to be 0.476 OD450 nm.

Turning to B31, the “P.E. binding ELISA OD” value turned out to be 1.51 OD450 nm.

As to B32, the “P.E. binding ELISA OD” value was 0.38 OD450 nm.
